Measurements from the supplement of paper PMC9170038.

Tested on: MS2 coat protein
Test: apparent KD of MS2 coat protein; designed switch direction (-1 OFF switch, 1 ON switch): -1; higher = weaker reporter binding
Summary of the method: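 For each design, the apparent KD is the median over clusters of curves fitted to normalised cluster fluorescence. Clusters held RNA switches with common flanks, transcribed on Illumina chips by stalled E. coli RNA polymerase. These were titrated with SNAP-549-labelled MS2 coat protein, doubling from 0.7 or 1.5 nM to 3 µM, without input, with 200 uM small-molecule ligand, or with an oligonucleotide input.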

[1] = Eterna round: R95, input ligand: FMN 200 uM
[2] = Eterna round: R95, input ligand: microRNA oligo, concentration not stated
[3] = Eterna round: R95, input ligand: none
[4] = input ligand: microRNA oligo, concentration not stated

CUGAAGGUGCAGGAUAUCCUGAAUAAGGGUUCAGGAGAAGGGCACACAUGAGGAUCACCCAUGUUAAUACUGCU [Eternabot (L2) Solution 54] (Eterna round: R97, puzzle: Exclusion 6)
apparent KD of MS2 coat protein (input ligand: FMN 200 uM): 0.0295 µM
apparent KD of MS2 coat protein (input ligand: none): 0.0391 µM

AGAAAUGCCCAUGGCCACAAGCUUUUUGCCUGUCUUACCACAUGAGGAUCACCCAUGUGACAUGGGCUCCUGAUAAU [Didilaeren] (puzzle: Sensor v3, turn-off variant 2)
apparent KD of MS2 coat protein [1]: 0.0158 µM
apparent KD of MS2 coat protein [2]: 0.305 µM
apparent KD of MS2 coat protein [3]: 0.0143 µM

GAAGUUAGAGGAUAUACAUGAGGAUCACCCAUGUGUGAAGUAAACUUUGUAUGUUUAUGUAGAAGGCUAACUUC [-21.7, -19.9 kcal, 32% A] (Eterna round: R97, puzzle: Exclusion 3)
apparent KD of MS2 coat protein (input ligand: FMN 200 uM): 0.094 µM
apparent KD of MS2 coat protein (input ligand: none): 0.0191 µM

AUAAGUAUAUAGGAUAUCUAGCUGGAAACAGCUAGAGAAGGAUGUACAUGAGGAUCACCCAUGUAAAUCUCAAU [Ex6/12-A3] (Eterna round: R97, puzzle: Exclusion 6)
apparent KD of MS2 coat protein (input ligand: FMN 200 uM): 0.0163 µM
apparent KD of MS2 coat protein (input ligand: none): 0.0141 µM

CUCUUGAGUCAGGAUAUCGAGAGGCUAAUAAAACGAGAAGGGACUACAUGAGGAUCACCCAUGUGAUCGCAAAA [Geonge] (Eterna round: R97, puzzle: Exclusion 6)
apparent KD of MS2 coat protein (input ligand: FMN 200 uM): 0.433 µM
apparent KD of MS2 coat protein (input ligand: none): 0.0617 µM

GGUCAGAUGGUAGGAUAUCUAUAUCGAGUGACCCUUUCAUAACAUGAGGAUCACCCAUGUCGGUGGGAGAAGGGCCGUACGGCG [salish99_ExNG02_R04_012] (Eterna round: R96, puzzle: Exclusion NG 2)
apparent KD of MS2 coat protein (input ligand: FMN 200 uM): 0.0411 µM
apparent KD of MS2 coat protein [4]: 0.0306 µM
apparent KD of MS2 coat protein (input ligand: none): 0.0402 µM

AAUAAUAAGGAGGAUAUCGUAUGCGAAAGCAUACGAGAAGGCCUAACAUGAGGAUCACCCAUGUUCCUCAAUAA [Mat - Exclusion 6 - Eli Mod - D55] (puzzle: Exclusion 6)
apparent KD of MS2 coat protein [1]: 0.659 µM
apparent KD of MS2 coat protein [2]: 0.254 µM
apparent KD of MS2 coat protein [3]: 0.259 µM

GAGAAAUUAUAGGAUAUCGUAAGGAUAAUUUAACGAGAAGGAUGAACAUGAGGAUCACCCAUGUGGUAUCAUGG [JL-ex6-3.12] (puzzle: Exclusion 6)
apparent KD of MS2 coat protein [1]: 0.191 µM
apparent KD of MS2 coat protein [2]: 0.184 µM
apparent KD of MS2 coat protein [3]: 0.465 µM

CAACGUAGUAAGGAUAUCCGGCAAAAGGCUACAGGAGAAGGUACUACAUGAGGAUCACCCAUGUGGAACUGUAA [EX6 B.7] (Eterna round: R97, puzzle: Exclusion 6)
apparent KD of MS2 coat protein (input ligand: FMN 200 uM): 0.0168 µM
apparent KD of MS2 coat protein (input ligand: none): 0.0161 µM

CGGUCGUCGUGAGGAUAUACAUGAGGAUCACCCAUGUUUCUCGGGUCGGUCGUCCGGUCGGUGGUGUAGAAGGCGCGGUGGCUG [random 3, A 14%] (Eterna round: R96, puzzle: Exclusion NG 2)
apparent KD of MS2 coat protein (input ligand: FMN 200 uM): 0.125 µM
apparent KD of MS2 coat protein [4]: 0.0956 µM
apparent KD of MS2 coat protein (input ligand: none): 0.1 µM

UGAGUGCUGCGAGGAUAUACAUGAGGAUCACCCAUGUAAUCGUGUGAGCCAAAGGCUCACACGAAGUAGAAGGCGCAGUACUCU [Mat - Exclusion NG 2 - Mod of JL - D25] (Eterna round: R96, puzzle: Exclusion NG 2)
apparent KD of MS2 coat protein (input ligand: FMN 200 uM): 0.0125 µM
apparent KD of MS2 coat protein [4]: 0.0111 µM
apparent KD of MS2 coat protein (input ligand: none): 0.0152 µM

UUGUACAUAGGAUAUAGUUGUUUCUACAUGAGGAUCACCCAUGUUAUUCCUCUCUCCCUUCUAGAAGGAUGUUUUU [JR_E5_Sub006] (puzzle: Exclusion 5)
apparent KD of MS2 coat protein [2]: 0.0436 µM

CUAUGAGCUGAGGAUAUCUGCAGGUUGGGCCUGGGAGAAGGCGGCACAUGAGGAUCACCCAUGUGACCGAAAUA [Mod2 Ex6 A.17 by Nando] (Eterna round: R97, puzzle: Exclusion 6)
apparent KD of MS2 coat protein (input ligand: FMN 200 uM): 0.0163 µM
apparent KD of MS2 coat protein (input ligand: none): 0.0127 µM

ACAUGUUGCGCAGGAUAUGAGACACAUGAGGAUCACCCAUGUGGCUACAUGUCAUACCAAGCGUCUCAGAAGGGUGUGAACAUG [Ex NG2 #34] (Eterna round: R96, puzzle: Exclusion NG 2)
apparent KD of MS2 coat protein (input ligand: FMN 200 uM): 0.0187 µM
apparent KD of MS2 coat protein [4]: 0.0117 µM
apparent KD of MS2 coat protein (input ligand: none): 0.0181 µM
